T1: EsCas13d, nuclease-dead (Eubacterium siraeum, UniProt B0MS50, R295A;H300A;R849A;H854A)
T1 sequence: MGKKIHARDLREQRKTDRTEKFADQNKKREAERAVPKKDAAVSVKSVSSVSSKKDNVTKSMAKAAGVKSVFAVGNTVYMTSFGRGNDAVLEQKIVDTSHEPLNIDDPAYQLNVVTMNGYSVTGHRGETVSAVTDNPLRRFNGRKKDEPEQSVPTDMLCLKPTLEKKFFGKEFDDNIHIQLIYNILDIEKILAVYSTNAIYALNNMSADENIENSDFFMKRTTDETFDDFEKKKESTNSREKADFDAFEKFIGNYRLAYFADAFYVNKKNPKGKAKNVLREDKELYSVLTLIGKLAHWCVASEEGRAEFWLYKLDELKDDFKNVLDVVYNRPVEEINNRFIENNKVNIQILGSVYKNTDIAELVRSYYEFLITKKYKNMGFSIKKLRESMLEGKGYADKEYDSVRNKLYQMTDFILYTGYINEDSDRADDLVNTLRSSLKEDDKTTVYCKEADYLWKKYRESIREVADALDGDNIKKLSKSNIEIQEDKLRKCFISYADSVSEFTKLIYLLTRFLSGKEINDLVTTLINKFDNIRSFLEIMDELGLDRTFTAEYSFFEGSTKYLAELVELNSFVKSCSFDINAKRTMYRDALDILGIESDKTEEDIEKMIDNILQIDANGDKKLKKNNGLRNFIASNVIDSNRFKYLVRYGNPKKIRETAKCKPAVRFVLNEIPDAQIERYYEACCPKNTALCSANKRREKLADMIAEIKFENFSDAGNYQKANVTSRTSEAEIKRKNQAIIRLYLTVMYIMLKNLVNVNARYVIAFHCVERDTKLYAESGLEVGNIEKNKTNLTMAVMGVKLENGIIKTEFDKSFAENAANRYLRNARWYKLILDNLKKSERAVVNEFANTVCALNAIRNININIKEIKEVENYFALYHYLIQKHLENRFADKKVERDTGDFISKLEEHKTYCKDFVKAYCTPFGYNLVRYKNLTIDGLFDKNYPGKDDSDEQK

B1: target 1 MT 5'PFS GGC 3'PFS AAA (mixed)
RNA 1: CACCCGUGCAAAAAUGCAGGGGUCUAAAACUGAGCGGAUAACCUCUCUAUGG
RNA 2: GGGAAUGGAUCCACAUCUACGAAUUCGGCCCAUAGAGAGGUUAUCCGCUCAAAAAGAUCGGAAGAGCACACGU
B2: target 1 MT 5'PFS UAU 3'PFS UCG (mixed)
RNA 1: CACCCGUGCAAAAAUGCAGGGGUCUAAAACUGAGCGGAUAACCUCUCUAUGG
RNA 2: GGGAAUGGAUCCACAUCUACGAAUUCUAUCCAUAGAGAGGUUAUCCGCUCAUCGAGAUCGGAAGAGCACACGU
B3: target 1 MT 5'PFS CUG 3'PFS UCC (mixed)
RNA 1: CACCCGUGCAAAAAUGCAGGGGUCUAAAACUGAGCGGAUAACCUCUCUAUGG
RNA 2: GGGAAUGGAUCCACAUCUACGAAUUCCUGCCAUAGAGAGGUUAUCCGCUCAUCCAGAUCGGAAGAGCACACGU
B4: target 1 MT 5'PFS GCA 3'PFS UGU (mixed)
RNA 1: CACCCGUGCAAAAAUGCAGGGGUCUAAAACUGAGCGGAUAACCUCUCUAUGG
RNA 2: GGGAAUGGAUCCACAUCUACGAAUUCGCACCAUAGAGAGGUUAUCCGCUCAUGUAGAUCGGAAGAGCACACGU
B5: target 1 G5A,C6A (mixed)
RNA 1: CACCCGUGCAAAAAUGCAGGGGUCUAAAACUGAGCGGAUAACCUCUCUAUGG
RNA 2: GGGAAUGGAUCCACAUCUACGAAUUCGUACCAUAGAGAGGUUAUCAACUCACCGAGAUCGGAAGAGCACACGU
B6: target 1 MT 5'PFS GCA 3'PFS UGC (mixed)
RNA 1: CACCCGUGCAAAAAUGCAGGGGUCUAAAACUGAGCGGAUAACCUCUCUAUGG
RNA 2: GGGAAUGGAUCCACAUCUACGAAUUCGCACCAUAGAGAGGUUAUCCGCUCAUGCAGAUCGGAAGAGCACACGU
B7: target 1 MT 5'PFS GAA 3'PFS UAC (mixed)
RNA 1: CACCCGUGCAAAAAUGCAGGGGUCUAAAACUGAGCGGAUAACCUCUCUAUGG
RNA 2: GGGAAUGGAUCCACAUCUACGAAUUCGAACCAUAGAGAGGUUAUCCGCUCAUACAGAUCGGAAGAGCACACGU
B8: target 1 MT 5'PFS GAA 3'PFS UAA (mixed)
RNA 1: CACCCGUGCAAAAAUGCAGGGGUCUAAAACUGAGCGGAUAACCUCUCUAUGG
RNA 2: GGGAAUGGAUCCACAUCUACGAAUUCGAACCAUAGAGAGGUUAUCCGCUCAUAAAGAUCGGAAGAGCACACGU
B9: target 1 MT 5'PFS GUU 3'PFS UCU (mixed)
RNA 1: CACCCGUGCAAAAAUGCAGGGGUCUAAAACUGAGCGGAUAACCUCUCUAUGG
RNA 2: GGGAAUGGAUCCACAUCUACGAAUUCGUUCCAUAGAGAGGUUAUCCGCUCAUCUAGAUCGGAAGAGCACACGU
B10: target 1 MT 5'PFS GUU 3'PFS AAA (mixed)
RNA 1: CACCCGUGCAAAAAUGCAGGGGUCUAAAACUGAGCGGAUAACCUCUCUAUGG
RNA 2: GGGAAUGGAUCCACAUCUACGAAUUCGUUCCAUAGAGAGGUUAUCCGCUCAAAAAGAUCGGAAGAGCACACGU
B11: target 1 MT 5'PFS CCU 3'PFS ACU (mixed)
RNA 1: CACCCGUGCAAAAAUGCAGGGGUCUAAAACUGAGCGGAUAACCUCUCUAUGG
RNA 2: GGGAAUGGAUCCACAUCUACGAAUUCCCUCCAUAGAGAGGUUAUCCGCUCAACUAGAUCGGAAGAGCACACGU
B12: target 1 MT 5'PFS CCU 3'PFS ACG (mixed)
RNA 1: CACCCGUGCAAAAAUGCAGGGGUCUAAAACUGAGCGGAUAACCUCUCUAUGG
RNA 2: GGGAAUGGAUCCACAUCUACGAAUUCCCUCCAUAGAGAGGUUAUCCGCUCAACGAGAUCGGAAGAGCACACGU
B13: target 1 MT 5'PFS GUU 3'PFS AAG (mixed)
RNA 1: CACCCGUGCAAAAAUGCAGGGGUCUAAAACUGAGCGGAUAACCUCUCUAUGG
RNA 2: GGGAAUGGAUCCACAUCUACGAAUUCGUUCCAUAGAGAGGUUAUCCGCUCAAAGAGAUCGGAAGAGCACACGU
B14: target 1 MT 5'PFS CUG 3'PFS ACU (mixed)
RNA 1: CACCCGUGCAAAAAUGCAGGGGUCUAAAACUGAGCGGAUAACCUCUCUAUGG
RNA 2: GGGAAUGGAUCCACAUCUACGAAUUCCUGCCAUAGAGAGGUUAUCCGCUCAACUAGAUCGGAAGAGCACACGU
B15: target 1 MT 5'PFS GCA 3'PFS UGA (mixed)
RNA 1: CACCCGUGCAAAAAUGCAGGGGUCUAAAACUGAGCGGAUAACCUCUCUAUGG
RNA 2: GGGAAUGGAUCCACAUCUACGAAUUCGCACCAUAGAGAGGUUAUCCGCUCAUGAAGAUCGGAAGAGCACACGU
B16: target 1 MT 5'PFS GUU 3'PFS UCG (mixed)
RNA 1: CACCCGUGCAAAAAUGCAGGGGUCUAAAACUGAGCGGAUAACCUCUCUAUGG
RNA 2: GGGAAUGGAUCCACAUCUACGAAUUCGUUCCAUAGAGAGGUUAUCCGCUCAUCGAGAUCGGAAGAGCACACGU
B17: target 1 U10G,U19C (mixed)
RNA 1: CACCCGUGCAAAAAUGCAGGGGUCUAAAACUGAGCGGAUAACCUCUCUAUGG
RNA 2: GGGAAUGGAUCCACAUCUACGAAUUCGUACCACAGAGAGGUGAUCCGCUCACCGAGAUCGGAAGAGCACACGU
B18: target 1 MT 5'PFS AAG 3'PFS UGC (mixed)
RNA 1: CACCCGUGCAAAAAUGCAGGGGUCUAAAACUGAGCGGAUAACCUCUCUAUGG
RNA 2: GGGAAUGGAUCCACAUCUACGAAUUCAAGCCAUAGAGAGGUUAUCCGCUCAUGCAGAUCGGAAGAGCACACGU
B19: target 1 MT 5'PFS GUU 3'PFS UCC (mixed)
RNA 1: CACCCGUGCAAAAAUGCAGGGGUCUAAAACUGAGCGGAUAACCUCUCUAUGG
RNA 2: GGGAAUGGAUCCACAUCUACGAAUUCGUUCCAUAGAGAGGUUAUCCGCUCAUCCAGAUCGGAAGAGCACACGU
B20: target 1 MT 5'PFS GUU 3'PFS UCA (mixed)
RNA 1: CACCCGUGCAAAAAUGCAGGGGUCUAAAACUGAGCGGAUAACCUCUCUAUGG
RNA 2: GGGAAUGGAUCCACAUCUACGAAUUCGUUCCAUAGAGAGGUUAUCCGCUCAUCAAGAUCGGAAGAGCACACGU
B21: target 1 MT 5'PFS UAG 3'PFS CAA (mixed)
RNA 1: CACCCGUGCAAAAAUGCAGGGGUCUAAAACUGAGCGGAUAACCUCUCUAUGG
RNA 2: GGGAAUGGAUCCACAUCUACGAAUUCUAGCCAUAGAGAGGUUAUCCGCUCACAAAGAUCGGAAGAGCACACGU
B22: target 1 MT 5'PFS UAG 3'PFS CAC (mixed)
RNA 1: CACCCGUGCAAAAAUGCAGGGGUCUAAAACUGAGCGGAUAACCUCUCUAUGG
RNA 2: GGGAAUGGAUCCACAUCUACGAAUUCUAGCCAUAGAGAGGUUAUCCGCUCACACAGAUCGGAAGAGCACACGU
B23: target 1 MT 5'PFS AAG 3'PFS UGU (mixed)
RNA 1: CACCCGUGCAAAAAUGCAGGGGUCUAAAACUGAGCGGAUAACCUCUCUAUGG
RNA 2: GGGAAUGGAUCCACAUCUACGAAUUCAAGCCAUAGAGAGGUUAUCCGCUCAUGUAGAUCGGAAGAGCACACGU
B24: target 1 U8C,U11G (mixed)
RNA 1: CACCCGUGCAAAAAUGCAGGGGUCUAAAACUGAGCGGAUAACCUCUCUAUGG
RNA 2: GGGAAUGGAUCCACAUCUACGAAUUCGUACCAUAGAGAGGGUACCCGCUCACCGAGAUCGGAAGAGCACACGU
B25: target 1 MT 5'PFS GUU 3'PFS AAU (mixed)
RNA 1: CACCCGUGCAAAAAUGCAGGGGUCUAAAACUGAGCGGAUAACCUCUCUAUGG
RNA 2: GGGAAUGGAUCCACAUCUACGAAUUCGUUCCAUAGAGAGGUUAUCCGCUCAAAUAGAUCGGAAGAGCACACGU
B26: target 1 MT 5'PFS GGC 3'PFS AAU (mixed)
RNA 1: CACCCGUGCAAAAAUGCAGGGGUCUAAAACUGAGCGGAUAACCUCUCUAUGG
RNA 2: GGGAAUGGAUCCACAUCUACGAAUUCGGCCCAUAGAGAGGUUAUCCGCUCAAAUAGAUCGGAAGAGCACACGU
B27: target 1 MT 5'PFS GAA 3'PFS UAU (mixed)
RNA 1: CACCCGUGCAAAAAUGCAGGGGUCUAAAACUGAGCGGAUAACCUCUCUAUGG
RNA 2: GGGAAUGGAUCCACAUCUACGAAUUCGAACCAUAGAGAGGUUAUCCGCUCAUAUAGAUCGGAAGAGCACACGU
B28: target 1 MT 5'PFS UAU 3'PFS UCU (mixed)
RNA 1: CACCCGUGCAAAAAUGCAGGGGUCUAAAACUGAGCGGAUAACCUCUCUAUGG
RNA 2: GGGAAUGGAUCCACAUCUACGAAUUCUAUCCAUAGAGAGGUUAUCCGCUCAUCUAGAUCGGAAGAGCACACGU

Target: T1, EsCas13d, nuclease-dead
Assay: crRNA (strand 1, pre-loaded); Mg2+; 40 mM Tris-HCl pH 7.5, 150 mM NaCl, 6 mM MgCl2, 1 mM DTT, 0.1% Tween-20, 0.2 mg/ml BSA; 25 C; 10 min per concentration, then washed
Conditions: tags: His6-TwinStrep-SUMO cleaved; N-terminal SNAP kept (SNAP-Surface 488); label: 3' end held by stalled T7 RNA polymerase

Binder | Kd
B1 | 52 ± 14 nM
B2 | 29 ± 7 nM
B3 | 4.75 ± 1.1 nM
B4 | 35 ± 7.5 nM
B5 | 5.75 ± 0.22 nM
B6 | 15.8 ± 2.95 nM
B7 | 40 ± 11 nM
B8 | 23 ± 7.5 nM
B9 | 12.7 ± 1.4 nM
B10 | 46.5 ± 13.5 nM
B11 | 16.5 ± 5.5 nM
B12 | 21 ± 6 nM
B13 | 37.5 ± 8.5 nM
B14 | 5.55 ± 1.45 nM
B15 | 16.4 ± 2.25 nM
B16 | 18.5 ± 2.7 nM
B17 | 48 ± 8 nM
B18 | 51.5 ± 25 nM
B19 | 14.8 ± 3.65 nM
B20 | 15.6 ± 2.1 nM
B21 | 51 ± 11 nM
B22 | ~43 nM
B23 | 35.5 ± 10.5 nM
B24 | 27 ± 2.5 nM
B25 | 22 ± 4.5 nM
B26 | 44.5 ± 18.5 nM
B27 | 27.5 ± 6 nM
B28 | 32 ± 6.5 nM
